Measurements from patent US8722052B2, “Vaccinia virus protein A46 peptide and use thereof” (priority 2008, dated 2014).

Molecular target: T1, TLR8 (Homo sapiens, UniProt Q9NR97)
T1 construct: expressed in transfected cells
T1 sequence (Q9NR97 27-1041): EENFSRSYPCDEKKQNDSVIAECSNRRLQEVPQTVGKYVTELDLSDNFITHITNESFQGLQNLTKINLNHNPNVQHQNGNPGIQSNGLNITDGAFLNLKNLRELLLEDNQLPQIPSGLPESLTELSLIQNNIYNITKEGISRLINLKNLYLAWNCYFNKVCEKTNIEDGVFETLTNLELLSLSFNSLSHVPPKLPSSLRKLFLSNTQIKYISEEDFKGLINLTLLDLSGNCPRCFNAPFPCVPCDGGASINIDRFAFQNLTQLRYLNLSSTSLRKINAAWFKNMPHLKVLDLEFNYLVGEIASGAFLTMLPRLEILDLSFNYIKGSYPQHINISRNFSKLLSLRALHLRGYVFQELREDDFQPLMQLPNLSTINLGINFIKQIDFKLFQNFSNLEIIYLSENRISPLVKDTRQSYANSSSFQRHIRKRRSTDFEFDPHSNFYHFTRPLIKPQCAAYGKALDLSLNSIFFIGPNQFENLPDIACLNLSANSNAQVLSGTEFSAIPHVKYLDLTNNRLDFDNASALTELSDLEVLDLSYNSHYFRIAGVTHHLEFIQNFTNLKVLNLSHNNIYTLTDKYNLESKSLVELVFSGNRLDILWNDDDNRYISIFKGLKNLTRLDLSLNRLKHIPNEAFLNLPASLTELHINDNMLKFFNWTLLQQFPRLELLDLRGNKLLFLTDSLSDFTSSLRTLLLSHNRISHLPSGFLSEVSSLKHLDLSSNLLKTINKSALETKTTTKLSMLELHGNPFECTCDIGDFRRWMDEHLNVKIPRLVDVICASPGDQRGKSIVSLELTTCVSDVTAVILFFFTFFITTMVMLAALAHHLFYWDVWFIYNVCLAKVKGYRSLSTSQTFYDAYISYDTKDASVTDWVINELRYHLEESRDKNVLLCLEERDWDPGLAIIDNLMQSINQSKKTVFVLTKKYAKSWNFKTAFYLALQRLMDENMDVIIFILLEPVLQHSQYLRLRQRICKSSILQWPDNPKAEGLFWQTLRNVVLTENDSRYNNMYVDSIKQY
Experiment: CL075-induced NFκB reporter assay in HEK293_TLR8 cells
Assay type: cell-based
Details: peptide 1, 5 or 25 μM, 2.5 μg/ml CL075, 6 h
Method: FIG. 12 is a bar chart showing the effect of A467 and A464 on TLR8-induced NFκB activation in HEK293 cells. HEK293_TLR8 cells were transfected with 60 ng NFκB-Luciferase and 20 ng of TK-Renilla reporter genes, as in FIG. 11. A467 (SEQ ID NO. 23) and A464 (SEQ ID NO. 20) were added to the cells at a concentration of 1, 5 or 25 μM the next day and cells were stimulated with 2.5 μg/ml CL075 1 hour after treatment with the peptide. Cells were harvested and assayed for NFκB activation by reporter gene assay 6 hr after stimulation with the agonist. No peptides were added to the control wells (black bars). Data is representative of at least three experiments each performed in triplicate. Data are expressed as mean fold induction±s.d. relative to control levels;
HEK293 cells were transfected using GeneJuice® a proprietary non-toxic transfection reagent. 200 μl/well cells at a density of 1×10^5 cells/ml were seeded the day before transfection. 0.8 μl of GeneJuice was mixed with 9.2 μl of serum-free DMEM (SFM) per transfection and incubated for 5 min at room temperature before adding the appropriate amount of the plasmid DNA. The GeneJuice/SFM/DNA mixture was then incubated at room temperature for 15 min before adding to the cells. […] Luciferase activity was analysed using a luminometer. […]

Sequence: KYSFKLILAEYRRRRRRRRR [Peptide A464]
- inhibition of TLR8-dependent NFκB activation: neither A467 (SEQ ID No. 23) nor A464 (SEQ ID No. 20) had any inhibitory effect
